Columns and labels:
Assay in all cases: fluorescence anisotropy
Details in all cases: 50 mM Tris-HCl pH 8.0, 50 mM NaCl, 1 mM DTT, 25 C; 200 nM protein, 5 nM 3'-fluorescein DNA
BLM full-length (human) = BLM full-length (human) (UniProt P54132)
BLM642-1290 (human) = BLM642-1290 (human) (UniProt P54132)
[1] = biological target: RecQ E. coli (Escherichia coli) (UniProt P15043)
Sequence of RecQ E. coli (Escherichia coli) (P15043 whole entry): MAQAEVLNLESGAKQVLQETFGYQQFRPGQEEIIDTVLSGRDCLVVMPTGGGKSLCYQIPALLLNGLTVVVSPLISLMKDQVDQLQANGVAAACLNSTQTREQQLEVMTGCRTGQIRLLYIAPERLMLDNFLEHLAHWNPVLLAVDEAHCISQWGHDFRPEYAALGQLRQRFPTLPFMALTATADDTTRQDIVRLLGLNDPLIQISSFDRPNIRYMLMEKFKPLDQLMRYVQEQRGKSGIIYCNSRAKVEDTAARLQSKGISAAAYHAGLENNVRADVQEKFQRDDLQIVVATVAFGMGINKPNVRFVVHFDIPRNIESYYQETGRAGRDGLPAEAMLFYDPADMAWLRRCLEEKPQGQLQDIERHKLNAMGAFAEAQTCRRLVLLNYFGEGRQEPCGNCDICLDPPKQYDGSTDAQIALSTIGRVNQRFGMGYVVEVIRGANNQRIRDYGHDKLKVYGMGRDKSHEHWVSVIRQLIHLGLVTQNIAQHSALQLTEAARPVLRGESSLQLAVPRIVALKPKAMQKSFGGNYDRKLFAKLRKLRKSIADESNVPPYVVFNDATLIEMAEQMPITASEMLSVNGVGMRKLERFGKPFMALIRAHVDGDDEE

Sequence of BLM full-length (human) (P54132 whole entry): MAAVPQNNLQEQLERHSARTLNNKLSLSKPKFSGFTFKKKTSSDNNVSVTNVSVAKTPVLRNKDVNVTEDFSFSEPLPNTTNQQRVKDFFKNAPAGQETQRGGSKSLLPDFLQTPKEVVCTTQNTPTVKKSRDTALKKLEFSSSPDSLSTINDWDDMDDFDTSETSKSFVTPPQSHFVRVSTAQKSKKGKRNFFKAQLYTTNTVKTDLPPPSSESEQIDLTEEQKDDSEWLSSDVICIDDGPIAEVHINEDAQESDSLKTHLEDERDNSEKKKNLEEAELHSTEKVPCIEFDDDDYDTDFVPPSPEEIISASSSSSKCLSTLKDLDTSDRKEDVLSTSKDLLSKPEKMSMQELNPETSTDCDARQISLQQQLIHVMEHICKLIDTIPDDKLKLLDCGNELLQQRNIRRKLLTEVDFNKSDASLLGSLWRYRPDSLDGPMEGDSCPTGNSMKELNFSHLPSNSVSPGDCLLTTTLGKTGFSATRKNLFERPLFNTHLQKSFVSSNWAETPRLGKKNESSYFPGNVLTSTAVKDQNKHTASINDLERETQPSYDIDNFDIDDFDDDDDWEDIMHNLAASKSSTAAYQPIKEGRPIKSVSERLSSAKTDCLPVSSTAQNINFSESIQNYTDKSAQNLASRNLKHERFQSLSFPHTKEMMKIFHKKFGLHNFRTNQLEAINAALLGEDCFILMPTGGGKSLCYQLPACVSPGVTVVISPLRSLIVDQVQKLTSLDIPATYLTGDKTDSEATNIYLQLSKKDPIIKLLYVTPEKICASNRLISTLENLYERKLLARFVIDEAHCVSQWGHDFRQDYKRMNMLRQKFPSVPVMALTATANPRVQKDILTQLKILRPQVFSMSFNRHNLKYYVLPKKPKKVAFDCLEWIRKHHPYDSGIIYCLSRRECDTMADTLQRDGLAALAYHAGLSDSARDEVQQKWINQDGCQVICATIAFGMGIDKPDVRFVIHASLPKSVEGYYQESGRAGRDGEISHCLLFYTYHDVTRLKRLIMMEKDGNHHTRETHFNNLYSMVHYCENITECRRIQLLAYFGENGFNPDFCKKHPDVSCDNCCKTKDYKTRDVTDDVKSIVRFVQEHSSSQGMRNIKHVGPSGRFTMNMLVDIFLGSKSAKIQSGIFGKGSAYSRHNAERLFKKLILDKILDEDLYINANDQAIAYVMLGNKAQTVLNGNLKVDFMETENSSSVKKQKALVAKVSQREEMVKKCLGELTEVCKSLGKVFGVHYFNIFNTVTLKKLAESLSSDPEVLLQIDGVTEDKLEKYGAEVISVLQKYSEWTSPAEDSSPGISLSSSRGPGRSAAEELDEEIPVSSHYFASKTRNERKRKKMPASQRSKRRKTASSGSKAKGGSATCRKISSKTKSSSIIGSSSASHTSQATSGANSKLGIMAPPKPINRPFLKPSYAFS
Sequence of BLM642-1290 (human) (P54132 642-1290): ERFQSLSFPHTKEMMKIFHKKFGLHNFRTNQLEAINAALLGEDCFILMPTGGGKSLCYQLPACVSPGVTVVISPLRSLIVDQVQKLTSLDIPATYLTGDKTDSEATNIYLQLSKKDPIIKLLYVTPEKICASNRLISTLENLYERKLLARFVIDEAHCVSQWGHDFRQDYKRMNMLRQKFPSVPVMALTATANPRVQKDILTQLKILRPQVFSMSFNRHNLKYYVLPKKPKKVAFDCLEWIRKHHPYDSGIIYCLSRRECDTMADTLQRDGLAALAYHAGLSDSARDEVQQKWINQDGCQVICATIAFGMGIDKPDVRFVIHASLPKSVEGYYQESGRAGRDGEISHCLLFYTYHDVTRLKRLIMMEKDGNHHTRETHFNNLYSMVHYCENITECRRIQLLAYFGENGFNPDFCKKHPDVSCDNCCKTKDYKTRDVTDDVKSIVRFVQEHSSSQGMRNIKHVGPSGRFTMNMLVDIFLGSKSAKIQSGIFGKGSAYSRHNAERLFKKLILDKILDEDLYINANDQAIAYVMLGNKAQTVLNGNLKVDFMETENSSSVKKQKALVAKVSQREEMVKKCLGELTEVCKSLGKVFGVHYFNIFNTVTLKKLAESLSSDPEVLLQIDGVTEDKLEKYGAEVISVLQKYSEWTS

In the case of “GCCCTGCTGCCGACCAACGAAGGT (double strand) [F-24 ds]”, the IC50 (BLM full-length (human)) is reported as 6.84 µM, the IC50 (BLM642-1290 (human)) is reported as 8.17 µM and the IC50 [1] is reported as 44.1 µM.

— paper PMC4872126
